According to PMC8880714, “Antimicrobial effect and mechanism of bovine lactoferrin against the potato common scab pathogen Streptomyces scabiei” (PLoS ONE, 2022):

B1: Bovine lactoferrin (bLF): Bovine-derived lactoferrin purchased from FUJIFILM Wako (protein, UniProt P24627 20-708, looked up)
Lactotransferrin: APRKNVRWCTISQPEWFKCRRWQWRMKKLGAPSITCVRRAFALECIRAIAEKKADAVTLDGGMVFEAGRDPYKLRPVAAEIYGTKESPQTHYYAVAVVKKGSNFQLDQLQGRKSCHTGLGRSAGWIIPMGILRPYLSWTESLEPLQGAVAKFFSASCVPCIDRQAYPNLCQLCKGEGENQCACSSREPYFGYSGAFKCLQDGAGDVAFVKETTVFENLPEKADRDQYELLCLNNSRAPVDAFKECHLAQVPSHAVVARSVDGKEDLIWKLLSKAQEKFGKNKSRSFQLFGSPPGQRDLLFKDSALGFLRIPSKVDSALYLGSRYLTTLKNLRETAEEVKARYTRVVWCAVGPEEQKKCQQWSQQSGQNVTCATASTTDDCIVLVLKGEADALNLDGGYIYTAGKCGLVPVLAENRKSSKHSSLDCVLRPTEGYLAVAVVKKANEGLTWNSLKDKKSCHTAVDRTAGWNIPMGLIVNQTGSCAFDEFFSQSCAPGADPKSRLCALCAGDDQGLDKCVPNSKEKYYGYTGAFRCLAEDVGDVAFVKNDTVWENTNGESTADWAKNLNREDFRLLCLDGTRKPVTEAQSCHLAVAPNHAVVSRSDRAAHVKQVLLHQQALFGKNGKNCPDKFCLFKSETKNLLFNDNTECLAKLGGRPTYEEYLGTEYVTAIANLKKCSTSPLLEACAFLTR
B2: Human lactoferrin (hLF): Human-derived lactoferrin purchased from FUJIFILM Wako (protein, UniProt P02788 20-710, looked up)
Lactotransferrin: GRRRSVQWCAVSQPEATKCFQWQRNMRKVRGPPVSCIKRDSPIQCIQAIAENRADAVTLDGGFIYEAGLAPYKLRPVAAEVYGTERQPRTHYYAVAVVKKGGSFQLNELQGLKSCHTGLRRTAGWNVPIGTLRPFLNWTGPPEPIEAAVARFFSASCVPGADKGQFPNLCRLCAGTGENKCAFSSQEPYFSYSGAFKCLRDGAGDVAFIRESTVFEDLSDEAERDEYELLCPDNTRKPVDKFKDCHLARVPSHAVVARSVNGKEDAIWNLLRQAQEKFGKDKSPKFQLFGSPSGQKDLLFKDSAIGFSRVPPRIDSGLYLGSGYFTAIQNLRKSEEEVAARRARVVWCAVGEQELRKCNQWSGLSEGSVTCSSASTTEDCIALVLKGEADAMSLDGGYVYTAGKCGLVPVLAENYKSQQSSDPDPNCVDRPVEGYLAVAVVRRSDTSLTWNSVKGKKSCHTAVDRTAGWNIPMGLLFNQTGSCKFDEYFSQSCAPGSDPRSNLCALCIGDEQGENKCVPNSNERYYGYTGAFRCLAENAGDVAFVKDVTVLQNTDGNNNEAWAKDLKLADFALLCLDGKRKPVTEARSCHLAMAPNHAVVSRMDKVERLKQVLLHQQAKFGRNGSDCPDKFCLFQSETKNLLFNDNTECLARLHGKTTYEKYLGPQYVAGITNLKKCSTSPLLEACEFLRK
B3: Apo-bLF: Iron-depleted (apo) bLF, iron saturation 0.35% (protein, UniProt P24627 20-708, looked up)
Lactotransferrin: B1 Lactotransferrin
modifications: iron-depleted (apo)
B4: Holo-bLF: Iron-saturated (holo) bLF, iron saturation 95.5% (protein, UniProt P24627 20-708, looked up)
Lactotransferrin: B1 Lactotransferrin
modifications: iron-saturated (holo)

How the values were obtained:
Streptomyces scabiei S58 [1] = experiment: microbe, parasite or virus in culture; type: cell-based; conditions: TSB, 28 °C, 72 h, absorbance 600 nm; for IC50: S. scabiei S58 spores 2 × 10^5/mL, probit analysis, mean ± SD, n = 3, read-out: Antimicrobial activity (IC50)
Description: S. scabiei S58, isolated from potatoes grown in Kagoshima, Japan, was used in this study. […] For antimicrobial assays, the spores of the isolate were incubated at 28 °C in tryptic soy broth (TSB) (Becton Dickinson, Sparks, USA). Escherichia coli strains JM109 and BL21(λDE3) were grown at 37 °C in Luria-Bertani broth supplemented with 100 μg/mL ampicillin for propagation.
(§1) A 12-well plate was used to assess the antimicrobial activity of LF, hydrolysate, LFcinB, and synthetic peptides. One milliliter of TSB containing each test substance was added to each well and then the spores of S. scabiei S58, prepared as described above, were added into each well at a final concentration of 2 × 10^5 spores/mL. The mixture was incubated at 28 °C for 72 h, and the absorbance was measured at 600 nm to monitor bacterial growth. To further confirm whether the antimicrobial activity is due to growth inhibition or bactericidal effect, 1 mL of TSB containing 2 ×10^3 spores and bLF (1 mg/mL) was incubated at 28 °C and directly cultured on STA after 5, 10, 15, 24, 48, and 72 h of incubation to count the emerging colonies. All assays were performed in duplicate and were repeated three times.

Streptomyces scabiei S58 [2] = experiment: Bactericidal effect assay: colony counting on starch agar after treatment; type: cell-based; conditions: bLF 1 mg/mL, 2 × 10^3 spores in 1 mL TSB, 28 °C
Description: as §1
Fig 3 Bactericidal effect of bovine-derived lactoferrin (bLF) (A) and minimal inhibitory concentration (MIC) of bLF (B) on Streptomyces scabiei S58. For the assay of bactericidal effect, the mixture of bLF and spores (2 × 10^3/mL) was incubated at 28 °C and directly cultured on starch agar in a time-dependent manner. The number of colonies emerging on the plates was counted. For the MIC assay, the mixture of bLF and spores (2 × 10^5/mL) was incubated at 28 °C for 72 h in tryptic soy broth and the absorbance was measured at 600 nm to monitor bacterial growth. […]

Molecule | IC50 (Streptomyces scabiei S58 [1]) | Minimal inhibitory concentration (no growth observed at this concentration and above) (Streptomyces scabiei S58 [1]; spores 2 × 10^5/mL) | Number of colonies after treatment, at 5 h (Streptomyces scabiei S58 [2]; plated on starch agar after 5 h) | Number of colonies after treatment, at 48 h (Streptomyces scabiei S58 [2]; plated on starch agar after 48 h)
B1 | 458 ± 74 nM | 3.9 µM | sharp decrease in the number of colonies | only a few colonies remained
B2 | 138000 ± 7960 nM | – | – | –
B3 | 2390 ± 203 nM | – | – | –
B4 | 2180 ± 428 nM | – | – | –
